Earlier results as cited in patent publication US20150010606A1, “INTRA-ARTICULAR INJECTION AND IMPLANT ATTACHMENT OF MOLECULE CONSISTING OF LUBRICIN AND EXTRACELLULAR SUPEROXIDE DISMUTASE OR HYALURONIC ACID AND EXTRACELLULAR SUPEROXIDE DISMUTASE” (Arthrex, Inc., priority 2013, published 2015).

B1: Extracellular superoxide dismutase [Cu—Zn] (protein, UniProt P08294 19-240, looked up)
Extracellular superoxide …: WTGEDSAEPNSDSAEWIRDMYAKVTEIWQEVMQRRDDDGALHAACQVQPSATLDAAQPRVTGVVLFRQLAPRAKLDAFFALEGFPTEPNSSSRAIHVHQFGDLSQGCESTGPHYNPLAVPHPQHPGDFGNFAVRDGSLWRYRAGLAASLAGPHSIVGRAVVVHAGEDDLGRGGNQASVENGNAGRRLACCVVGVCGPGLWERQAREHSERKKRRRESECKAA

How the values were obtained:
[1] = tested on: osteoarthritis; conditions: intra-articular injection; human clinical studies; compared to a placebo control
[2] = tested on: collagen-induced arthritis; conditions: mice with collagen-induced arthritis treated with SOD3

Molecule | treatment of osteoarthritis [1] | histology of the joint [2] | joint swelling and deformity [2]
SOD derived from bovine erythrocytes: superoxide dismutase derived from bovine erythrocytes, injected intra-articularly to treat osteoarthritis | significant success when compared to a placebo control | – | –
B1 | – | less destruction of cartilage and bone, less infiltration of mononuclear cells, and less proliferation of synovial cells | suppression of joint swelling and deformity
